In US20060142193A1, “Selective inhibition of rock1 in cardiac therapy” (BAYLOR COLLEGE OF MEDICINE, priority 2004, published 2006):

T1: SRF (Homo sapiens, UniProt P11831)
T1 sequence (P11831 1-508): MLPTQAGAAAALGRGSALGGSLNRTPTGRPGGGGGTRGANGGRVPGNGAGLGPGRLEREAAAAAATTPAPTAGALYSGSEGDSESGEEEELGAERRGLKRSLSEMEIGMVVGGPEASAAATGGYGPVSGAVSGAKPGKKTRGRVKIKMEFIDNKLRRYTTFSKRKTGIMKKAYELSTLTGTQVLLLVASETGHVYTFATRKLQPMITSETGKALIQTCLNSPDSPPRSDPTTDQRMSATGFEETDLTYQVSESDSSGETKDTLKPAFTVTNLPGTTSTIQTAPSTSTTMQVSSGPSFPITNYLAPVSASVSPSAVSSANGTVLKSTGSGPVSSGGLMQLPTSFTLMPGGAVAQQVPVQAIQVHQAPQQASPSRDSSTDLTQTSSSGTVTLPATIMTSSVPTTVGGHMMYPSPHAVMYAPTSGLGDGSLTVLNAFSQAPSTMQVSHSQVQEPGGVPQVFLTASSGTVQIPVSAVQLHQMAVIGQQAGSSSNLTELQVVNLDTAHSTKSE


Assays:
phospho-AKT (pAKT) = assay: phospho-AKT level in human HEK cells (Western blot); type: cell-based; conditions: transfected HEK cells
Source text: (§1) To further characterize the mechanism involved in this caspase activation, the present inventors transfected ROCKΔ1 in human HEK cells. […] Since AKT is activated by PI3K, PTEN acts as the upstream PI3K inhibitor. In specific embodiments of the invention, the repression of AKT activity caused by ROCKΔ1 may contribute to its pro-apoptotic effect through the increase in PTEN activity. […] Meanwhile, the decreased level of pAKT by ROCKΔ1 was reverted by blocking PTEN expression. Furthermore, the pAKT level was higher than the control level (FIG. 22D), which further supported this specific embodiment.
Cell culture, plasmid constructs, and recombinant adenoviruses. Neonatal rat cardiomyocytes were isolated and cultured in DMEM/F12 medium (1:1) with 10% horse serum (DF10); cells were ready for transfection or virus infection 40 hours after plating. For immunostaining, cells were cultured on pre-coated (with 0.2% gelatin) coverslips. Transfections were performed using LipofectAMINE 2000 (Invitrogen) with Opti-MEM I Reduced Serum Medium (Invitrogen). After 6 hr or O/N, cells were cultured in DF10. With human embryonic kidney (HEK) A293T cells, cells were cultured in DMEM with 10% fetal bovine serum. […]
Western blot and Malachite green assay. […] PTEN activity was evaluated by Malachite green assay (Upstate). […]

PTEN = PTEN activity by Malachite green assay in human HEK cells; type: cell-based; conditions: transfected HEK cells
Source text: as §1
Western blot and Malachite green assay. Anti-ROCK-1, caspase 3, PARP, His, α-actin antibodies (Santa Cruz), anti-phospho-AKTser473 (Cell Signaling) and anti-RTEN (Upstate) were purchased. Protein samples for Western blot were prepared and separated as described earlier (Chang et al., 2000). Even loadings were confirmed by Ponceau staining and antibody probed for actin. PTEN activity was evaluated by Malachite green assay (Upstate). 500 μg of cell lysate protein was used for immunoprecipitation.

caspase 3 = assay: Caspase 3 activation in transfected neonatal rat cardiomyocytes (pCaspase3-sensor); type: cell-based; conditions: overexpression vs control plasmid
Source text: To determine whether ROCK1 activation by caspase 3 cleavage is able to activate the caspase cascade, thereby constituting an amplification loop of apoptotic responses, the present inventors transfected rat neonatal cardiomyocytes with a plasmid encoding a C-terminally truncated mutant (1-1080) of ROCK1 (ROCK1Δ1) that corresponds closely to the fragment generated by caspase 3 cleavage (1-1113), and a second plasmid, pCaspase3-sensor encoding a fluorescent (EYFP) fusion protein (FIG. 9A). […] Caspase 3 activity in the transfected myocytes was monitored by counting the number of transfected cells with nuclear localization of fluorescent fusion protein.
Apoptosis assay and immunofluorescence analysis. Apoptosis was evaluated using caspase 3 activity and poly(ADP-ribose) polymerase (PARP) cleavage with Western blot in human and mouse heart tissues. With regard to apoptotic cultured neonatal cardiomyocytes, a caspase 3 sensor (BD Biosciences) was introduced to detect the onset of caspase 3 activity (FIG. 9). The vector encodes EYFP (enhanced yellow fluorescent protein) fused with NES (nuclear export signal) and NLS (nuclear localization signal). A caspase 3 specific cleavage site is located between EYFP and NES. […] The quantification was performed by counting the number of transfected cells with the nuclear localization of fluorescent fusion protein over the total transfected cells. […]

SRF = target: T1, SRF; assay: SRF cleavage by active caspase 3 in vitro in presence or absence of ROCK1Δ1; type: biochemical; conditions: in the presence of active ROCK1
Experimental: Equal amounts of SRF were incubated with active caspase 3 in the presence or absence of ROCK1Δ1.

| caspase 3 activation (nuclear localization of EYFP fusion protein) (caspase 3) | full-length SRF level after incubation with active caspase 3 (SRF) | Molecule | phospho-AKT (pAKT) level (phospho-AKT (pAKT)) | PTEN activity (PTEN) |
| --- | --- | --- | --- | --- |
| induced significant caspase 3 activation | markedly decreased | ROCK1Δ1: C-terminally truncated mutant (1-1080) of ROCK1, constitutively active, mimics caspase 3 cleaved fragment (protein, UniProt Q13464 1-1080, looked up, fragment) MSTGDSFETRFEKMDNLLRDPKSEVNSDCLLDGLDALVYDLDFPALRKNKNIDNFLSRYKDTINKIRDLRMKAEDYEVVKVIGRGAFGEVQLVRHKSTRKVYAMKLLSKFEMIKRSDSAFFWEERDIMAFANSPWVVQLFYAFQDDRYLYMVMEYMPGGDLVNLMSNYDVPEKWARFYTAEVVLALDAIHSMGFIHRDVKPDNMLLDKSGHLKLADFGTCMKMNKEGMVRCDTAVGTPDYISPEVLKSQGGDGYYGRECDWWSVGVFLYEMLVGDTPFYADSLVGTYSKIMNHKNSLTFPDDNDISKEAKNLICAFLTDREVRLGRNGVEEIKRHLFFKNDQWAWETLRDTVAPVVPDLSSDIDTSNFDDLEEDKGEEETFPIPKAFVGNQLPFVGFTYYSNRRYLSSANPNDNRTSSNADKSLQESLQKTIYKLEEQLHNEMQLKDEMEQKCRTSNIKLDKIMKELDEEGNQRRNLESTVSQIEKEKMLLQHRINEYQRKAEQENEKRRNVENEVSTLKDQLEDLKKVSQNSQLANEKLSQLQKQLEEANDLLRTESDTAVRLRKSHTEMSKSISQLESLNRELQERNRILENSKSQTDKDYYQLQAILEAERRDRGHDSEMIGDLQARITSLQEEVKHLKHNLEKVEGERKEAQDMLNHSEKEKNNLEIDLNYKLKSLQQRLEQEVNEHKVTKARLTDKHQSIEEAKSVAMCEMEKKLKEEREAREKAENRVVQIEKQCSMLDVDLKQSQQKLEHLTGNKERMEDEVKNLTLQLEQESNKRLLLQNELKTQAFEADNLKGLEKQMKQEINTLLEAKRLLEFELAQLTKQYRGNEGQMRELQDQLEAEQYFSTLYKTQVKELKEEIEEKNRENLKKIQELQNEKETLATQLDLAETKAESEQLARGLLEEQYFELTQESKKAASRNRQEITDKDHTVSRLEEANSMLTKDIEILRRENEELTEKMKKAEEEYKLEKEEEISNLKAAFEKNINTERTLKTQAVNKLAEIMNRKDFKIDRKKANTQDLRKKEKENRKLQLELNQEREKFNQMVVKHQKELNDMQAQLVEECAHRNELQMQL | decreased | increased |
| no significant effect |  | full length ROCK1: full length human ROCK-1 expressed from pCAG-ROCK-1 (protein, UniProt Q13464 1-1354, looked up, full-length) MSTGDSFETRFEKMDNLLRDPKSEVNSDCLLDGLDALVYDLDFPALRKNKNIDNFLSRYKDTINKIRDLRMKAEDYEVVKVIGRGAFGEVQLVRHKSTRKVYAMKLLSKFEMIKRSDSAFFWEERDIMAFANSPWVVQLFYAFQDDRYLYMVMEYMPGGDLVNLMSNYDVPEKWARFYTAEVVLALDAIHSMGFIHRDVKPDNMLLDKSGHLKLADFGTCMKMNKEGMVRCDTAVGTPDYISPEVLKSQGGDGYYGRECDWWSVGVFLYEMLVGDTPFYADSLVGTYSKIMNHKNSLTFPDDNDISKEAKNLICAFLTDREVRLGRNGVEEIKRHLFFKNDQWAWETLRDTVAPVVPDLSSDIDTSNFDDLEEDKGEEETFPIPKAFVGNQLPFVGFTYYSNRRYLSSANPNDNRTSSNADKSLQESLQKTIYKLEEQLHNEMQLKDEMEQKCRTSNIKLDKIMKELDEEGNQRRNLESTVSQIEKEKMLLQHRINEYQRKAEQENEKRRNVENEVSTLKDQLEDLKKVSQNSQLANEKLSQLQKQLEEANDLLRTESDTAVRLRKSHTEMSKSISQLESLNRELQERNRILENSKSQTDKDYYQLQAILEAERRDRGHDSEMIGDLQARITSLQEEVKHLKHNLEKVEGERKEAQDMLNHSEKEKNNLEIDLNYKLKSLQQRLEQEVNEHKVTKARLTDKHQSIEEAKSVAMCEMEKKLKEEREAREKAENRVVQIEKQCSMLDVDLKQSQQKLEHLTGNKERMEDEVKNLTLQLEQESNKRLLLQNELKTQAFEADNLKGLEKQMKQEINTLLEAKRLLEFELAQLTKQYRGNEGQMRELQDQLEAEQYFSTLYKTQVKELKEEIEEKNRENLKKIQELQNEKETLATQLDLAETKAESEQLARGLLEEQYFELTQESKKAASRNRQEITDKDHTVSRLEEANSMLTKDIEILRRENEELTEKMKKAEEEYKLEKEEEISNLKAAFEKNINTERTLKTQAVNKLAEIMNRKDFKIDRKKANTQDLRKKEKENRKLQLELNQEREKFNQMVVKHQKELNDMQAQLVEECAHRNELQMQLASKESDIEQLRAKLLDLSDSTSVASFPSADETDGNLPESRIEGWLSVPNRGNIKRYGWKKQYVVVSSKKILFYNDEQDKEQSNPSMVLDIDKLFHVRPVTQGDVYRAETEEIPKIFQILYANEGECRKDVEMEPVQQAEKTNFQNHKGHEFIPTLYHFPANCDACAKPLWHVFKPPPALECRRCHVKCHRDHLDKKEDLICPCKVSYDVTSARDMLLLACSQDEQKKWVTHLVKKIPKNPPSGFVRASPRTLSTRSTANQSFRKVVKNTSGKTS |  | not found |
